Source: the DeepSol protein solubility set

Assay: soluble on expression in E. coli; label from the status in PepcDB or PDB records

| Sequence | soluble on expression in E. coli |
| --- | --- |
| MSLKSVIVPAPGKIEIREVETPVINAYQALVKTEMVALCNATDSKLIAGHFPGVDTYPLALGHENAGIVVAVGEKVRNFKVGDRAIGGLISDFGAQGINSGWGGFSEYVVVNDFEVLKEEGLATPEQGCWDSFEIQNSVPAHVQPEEAVISCTWREVLGAFKDFNLTPGKKVIVVGSGPVGLSFVKLGKLFGLGQIDIVDMLPAKLEVARRMGADNGYTPAEISTPEFIAAAGRSYDAVIDAVGLDVVVNSVLPLVKMGGDVCVYGVMTKNPTFDLSKAPYNFDLHMHQWPTRSEEKAAMTTLAQWIEEGTLSASDFITHRFKIEEIEEAFAAVKRGEVLKCVLTEGHHHHHH | not soluble |
| MAHHHHHHMTTLEKRIEEASGLIYRARAEETPDGNPLVAARNYIAAMEIITNICKDVSPESDNDKDRFFLFQVRQRMEVYQKRVQLLLSVAAEMGLDDIPEHVGNTVLDSPPHAGDRTGAADFENPAVPSTAPTSVPPPACADGFGENVPPLEYFFSQQPQAPTRPHPEETESVEALLGQFSFDEVKKE | soluble |
| MSLNGIGSYEYCGRRISMQDSILVGNNFFGDASSLFGIFDGHGGDYGSCFISKEIQKSLEKLRGRALTKEVFENEIISAIQNINTLMEQNNMTDGATSVIVASTKTHYLIANIGDSRAIIIRRTETSPIPMKDIDDETQQTLRPKSPSKLVLPKKTLKGKLGWSGAGSSKTTNQIEVNFDYIGGGRIEVEALTHDHKPSYQEDRQRIRESGNYISDQEKVNGYISVTRAIGDVKCKAFVSCIPEFSEVARRSSDCFVICACDGVWDVFSNEEIGNLVMANEQMNCTELAKLIVDIAYCRLSSDNISCIVFNCQDSEGHHHHHH | soluble |
| MASMKKSTENESTNYQYKIQELRKLLKSLLLNYLELIGVLSINPDMYERKVENIRTILVNIHHLLNEYRPHQSRESLIMLLEEQLEYKRGEIREIEQVCKQVHDKLTS | soluble |
| CEEPPTFEAMELIGKPKPYYEIGERVDYKCKKGYFYIPPLATHTICDRNHTWLPVSDDACYRETCPYIRDPLNGQAVPANGTYEFGYQMHFICNEGYYLIGEEILYCELKGSVAIWSGKPPICEKV | soluble |
| MDIKNSPSSLNSPSSYNCSQSILPLEHGSIYIPSSYVDSHHEYPAMTFYSPAVMNYSIPSNVTNLEGGPGRQTTSPNVLWPTPGHLSPLVVHRQLSHLYAEPQKSPWCEARSLEHTLPVNRETLKRKVSGNRCASPVTGPGSKRDAHFCAVCSDYASGYHYGVWSCEGCKAFFKRSIQGHNDYICPATNQCTIDKNRRKSCQACRLRKCYEVGMVKCGSRRERCGYRLVRRQRSADEQLHCAGKAKRSGGHAPRVRELLLDALSPEQLVLTLLEAEPPHVLISRPSAPFTEASMMMSLTKLADKELVHMISWAKKIPGFVELSLFDQVRLLESCWMEVLMMGLMWRSIDHPGKLIFAPDLVLDRDEGKCVEGILEIFDMLLATTSRFRELKLQHKEYLCVKAMILLNSSMYPLVTATQDADSSRKLAHLLNAVTDALVWVIAKSGISSQQQSMRLANLLMLLSHVRHASNKGMEHLLNMKCKNVVPVYDLLLEMLNAHVLRGCKSSITGSECSPAEDSKSKEGSQNPQSQ | soluble |
| MGSDKIHHHHHHMLERYQGEDGRRLRVEAALDSKLAKGNQALAEAIADVATLRQFKAGQALIEQGGDDNQVYILISGSCDVIVNAKVVNRRGPGDHVGEMAAIQPAQRRSATIMATEQVLAFELPEPVFANLAATYPDIYRLIAKDLARRLLQRNAVTGTPRKRIRVFVISSVEALPIARAIQTAFEYDPFTVIVWTDGVFKVANYTLQSLEDEIDNSDFAIAIAHPDDKVESRQAQWPQPRDNVIFELGLFMGRLGRARAILMEPRDEKVKLPSDLAGVTTIGYRFDPDGDTQAALAPACNRLRNHIVELGLAVG | not soluble |
| MLQITKSLSIALTEIEMTALRSQGAGGQNVNKVASAIHLRFDIGASSLPDVYKERLLNLNDQRITKDGIVVIKAQSHRTQEQNREEALKRLQGLISSVITLPKPRRPTKPTRSSQRKRLDAKTKRSAVKALRKSIDELEHHHHHH | not soluble |
| QEKSARDLMIAVDLSGSMAVEDFTLPIATNELTNRAKNDTDSSATKSSTNDTGKGEKVNRLVAVKHVLNAFVKSREHDRLGLILFGDAPYLQAPFTDDIATWQALLNESDIGMAGQSTAFGDAIGLAISVFQQSDTQNRVLIVLTDGNDTASKVPPVEAAKVAAARDIKIYTIAIGDPSAVGEEKVDLEVLQAMAEITQGKSFQALNSEELLKVYAEI | not soluble |
| MEEELRVRLNDHQVSKVFPVKPKSTANVVAVMEELVARRKLMKCVSNMEEGELGMLLGFLQRYCTVQRYSGLLMGLTKKVLETRAEDIKGKNEFKGLLRNLKREVNQEIRIQQSLLEIQGVIAPLMRIAGRS | not soluble |
| MVRKVNIIKGNEGQGKRIKFVQLIFVDINGMPKGMEVPITRLEEAIEEGIAFDGSSVPGFQGIEDSDLVFKADPSTYVEVPWDNVARVYGYIYKDGKPYEADPRGVLRRTLERLEKLGIKVYIGPEPEFYLFKKNGSWELEIPDVGGYFDILTLDKAKDIKREIAEYMPYFGLTPEVLHHEVGKAQHEIDFRHDEALKTADNIVSFKYIVKAVAEMHGLYATFMPKPIYGMPGNGMHLHISLWKDGENIFKGEEGLSETALYFIGGLLKHAKALAAVTNPTVNSYKRLVPGYEAPVYISWGYKNRSALIRVPAFWGNGARIEYRCPDPSANSYLAFAAILMAGLDGIKHKIEPFAYVEENVYEMDEKRREEIGIDMLPENLGEALDELERDKVVKEALGGAYRNFVGYKRKEWEEYLDYLEAKNLPKDTKNVTEWELERYFFI | soluble |
| MSEVDAQEEFHDAPEEAVIEIQKDFVAEIEQDNSNAQLVEEGDDQLVTAEADDEKSAQQVDEDRTEDQVPDITGTEYVDPMTTSMDGIEDLPANDEAQFEDTILEEDELPDQLESAENQEPRSELVSSGVEEEIIEEEDIEEIEESDYVEESAPADEPAPEEEKPQEEAPAEEPAPAEEAPQEEVPAEEPVAEETAPAEEAAVEEPVVEEAAPVEEAPEAEETAPAEEPLIEVAVEEAPAEEPVAEEAEPEAEKQEFELQAPPEGKRPRTPNDLDNPTADEEPAAELEADAGSEVPPTPKTAASEKQSVPPTPKSAAPSEVPPTPKSAAPSEVPPTPKSAAPSEVPLTPKSAAQSSVPPTPKSAVPSEAPPTPRSAAPSDVPPTPKSNGHIANGSIPGTPSVAQESAKATPAATPAATATPAATATPAATGTPKADTAFNFEETPATPRSSVPATPTESNLTTPAPKTPKTPKTPRTPRTPKTPRTPKTPAVVEPEPEPVAEEPEPVAEPEPEPEPVAEAEPEAEPAVEEEPAEEPEPAADETATEPTAEEAEPEAVEESIEKTEVVEEESAPPAARQSSPSPPPARRRPQSPSPERQRTSRHADRDITSYDEDSYRAVPPPRMPTATSFSSWSPPDKQSYTPISPFVSTANKYRNEYTSGSSYRPTNMYTSHFDDIVATGAFSSALYSTNRLIERSRSRTRERKQAMRSQRSASNYYRYSSQAPAPLRAREYSTPPTREISRAPSRNTSFVSFLDYSSAKQGELSRANSRTSIYGDSLSRSCSRANVDAYLGGGRLSRVDSYVRDIHTPYEYEVPSTYDRYRSSSRGPSYSTINGYTAYISSPSYVETESTRRMKRYQRDTSPAMVRSMYEGRIGQLERSLSREVIQKDRVCLWRLGNVVYGGLYRKKYDADLEKAVQYYSSCAKKRRF | not soluble |
| MVAHSSVEGNQGIEDRQVSTEASSDVFQSQRSRPRQSTVAFQTHFKPFNYARDFKIISNTTSMLEESGFYWGPMTVEEAHLKLKKESVGTFLIRDSRQSDVFFTLSYKAQNGPVSIRINFKNSKFSLTGSKESFDSLFKLLEHYISSPKKGLIRPCRKEPVQSLQQLCRRQIMERCDGKDIDCIPVQPILKDFLHAFPHPL | not soluble |
| MAHHHHHHMDAVKRHSQSTWPVSMPPLHAGTQEERMTGEEAGSSTKHTEGTNDRREKHRHGPHPGRRLHTSPHTHTHHRSAVSLRVRGFGPPHNKRTHRQQLTTNDKEEKRHTAATVSSSVPRPTGYGHSPAANTQHARSKLSHKVPHAEAGPHPPMTRRLTPCGHTECTDSPIERIRRPSLKAASVIDGP | soluble |
| MNDFHRDTWAEVDLDAIYDNVENLRRLLPDDTHIMAVVKANAYGHGDVQVARTALEAGASRLAVAFLDEALALREKGIEAPILVLGASRPADAALAAQQRIALTVFRSDWLEEASALYSGPFPIHFHLKMDTGMGRLGVKDEEETKRIVALIERHPHFVLEGLYTHFATADEVNTDYFSYQYTRFLHMLEWLPSRPPLVHCANSAASLRFPDRTFNMVRFGIAMYGLAPSPGIKPLLPYPLKEAFSLHSRLVHVKKLQPGEKVSYGATYTAQTEEWIGTIPIGYADGWLRRLQHFHVLVDGQKAPIVGRICMDQCMIRLPGPLPVGTKVTLIGRQGDEVISIDDVARHLETINYEVPCTISYRVPRIFFRHKRIMEVRNAIGRGESSA | soluble |
| MAHHHHHHSLKKPTHSGSGQIRIIGGQWRGRKLPVPDSPGLRPTTDRVRETLFNWLAPVMVDAHCLDCFAGSGALGLEALSRYAAQATLLEMDRAVSQQLQKNLATLKANNARVVNTNTLTFLSQPGTPHHVVFVDPPFRKGLLEETLQLLETQGWLADDALIYVESEVENGLPPVPANWALYREKVAGQVAYRLYQRDAQGENDVD | soluble |
| MSLETETMSQDLMQRGKAIKLAVFDVDGVLTDGRLYFMEDGSEIKTFNTLDGQGIKMLIASGVTTAIISGRKTAIVERRAKSLGIEHLFQGREDKLVVLDKLLAELQLGYEQVAYLGDDLPDLPVIRRVGLGMAVANAASFVREHAHGITRARGGEGAAREFCELILSAQGNLEAAHSVYLEGHHHHHH | soluble |
| EAAPAPAGKGKILAVTACPTGIAHTFMAADALKEKAKELGVEIKVETNGSSGIKHKLTAQEIEDAPAIIVAADKQVEMERFKGKRVLQVPVTAGIRRPQELIEKAMNQDAPIYQGSGGGSA | not soluble |
| MGSDKIHHHHHHMEKQVATSIFESLSSGLRLDVFRLLVKKGPDGMVAGEIANALDVPPANLSFHLKALSQARLVTVEQEGRFQRYRADIPLMLDLIAYLTDECCTGSPAKCVEKVAASNCAKELLPPPVTHSNESDNMNILFLCTGNSCRSILAEAVFNHLAPTGWKAMSAGSQPTGTVHPRSLALLAREGIDTNGLHSKSWDNLPQVPDVVITVCSNAAGETCPAYLGAVLRAHWGVDDPAHATGTEAEIEAAFTAAYRILRRRIEAFLALPLVELARDRTRLKAELDRIGALSA | not soluble |
| MKITKLETVRVAERTNLLWVLVHTDEGITGLGETFFGAETVETYVHEYIAPRVIGRDPLQIDLLAQDLVGYLGFRSSGAEVRGNSAFDIALWDIFGKATNQPIAQLLGGFSRREIRTYNTCAGTEYIKKATGQQTANYGLSGGKDYDDLNGFLHRADELAHSLLEDGITAMKIWPFDAAAEKTRGQYISMPDLKSALEPFEKIRKAVGDKMDIMVEFHSMWQLLPAMQIAKALTPYQTFWHEDPIKMDSLSSLTRYAAVSPAPISASETLGSRWAFRDLLETGAAGVVMLDISWCGGLSEARKIASMAEAWHLPVAPHDCTGPVVLCASTHLSLNAPNALVQESVRAFYKTWYRDLVTALPEVKNGMITVPPGAGLGMELHPDIEKTFTVSRRFSDAASI | not soluble |
| SNAMSDSDAMTDPNAVSYSNAIVVLCTAPDEASAQNLAAQVLGEKLAACVTLLPGATSLYYWEGKLEQEYEVQLLFKSNTDHQQALLTYIKQHHPYQTPELLVLPVRDGDKDYLSWLNASLL | soluble |
